T1: GST-OsARF12 DBD (Oryza sativa (cDNA of ZH11), UniProt Q0J951 121-247)
T1 sequence: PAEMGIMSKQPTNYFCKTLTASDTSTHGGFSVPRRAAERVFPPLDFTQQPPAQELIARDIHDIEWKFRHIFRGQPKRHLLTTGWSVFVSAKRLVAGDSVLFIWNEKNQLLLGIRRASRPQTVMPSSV


Biological target: T1, GST-OsARF12 DBD
Experiment: EMSA; LightShift Chemiluminescent EMSA Kit (Thermo Scientific); buffer, salt, pH and temperature not stated
Settings: protein: recombinant, tags: GST (N-terminal, pGEX-4T-1), blunt

Binder | binding result (label: biotin as probe) | binding result (label: biotin)
OsWRKY13 AuxRE mutant probe (mCold) (dsDNA) DNA 1: GTTACACCGAAAAAAGCTCACGGAT DNA 2: ATCCGTGAGCTTTTTTCGGTGTAAC | no binding | 
OsWRKY13 promoter AuxRE probe (dsDNA) DNA 1: TGGTTCGTGATTAAGGGTTTGGTTACACCGTGTCCCGCTCACGGATAGGCTGCTTAATTCTCTTT DNA 2: AAAGAGAATTAAGCAGCCTATCCGTGAGCGGGACACGGTGTAACCAAACCCTTAATCACGAACCA |  | binds

From publication PMC7735678, “Auxin response factors (ARFs) differentially regulate rice antiviral immune response against rice dwarf virus”
